Among the data in US20180291110A1 (Hoffmann-La Roche, published 2018) are koff values, retold here.

This assay deals with T1, human transferrin receptor (recombinant, for surface plasmon resonance) (human, UniProt P02786 89-760).
T1 construct: also called huTfR; human transferrin receptor-biotinylated
Briefly: SPR 25C.

Substitutions are numbered along the chain they refer to.

T1 sequence (P02786 89-760 limits assumed): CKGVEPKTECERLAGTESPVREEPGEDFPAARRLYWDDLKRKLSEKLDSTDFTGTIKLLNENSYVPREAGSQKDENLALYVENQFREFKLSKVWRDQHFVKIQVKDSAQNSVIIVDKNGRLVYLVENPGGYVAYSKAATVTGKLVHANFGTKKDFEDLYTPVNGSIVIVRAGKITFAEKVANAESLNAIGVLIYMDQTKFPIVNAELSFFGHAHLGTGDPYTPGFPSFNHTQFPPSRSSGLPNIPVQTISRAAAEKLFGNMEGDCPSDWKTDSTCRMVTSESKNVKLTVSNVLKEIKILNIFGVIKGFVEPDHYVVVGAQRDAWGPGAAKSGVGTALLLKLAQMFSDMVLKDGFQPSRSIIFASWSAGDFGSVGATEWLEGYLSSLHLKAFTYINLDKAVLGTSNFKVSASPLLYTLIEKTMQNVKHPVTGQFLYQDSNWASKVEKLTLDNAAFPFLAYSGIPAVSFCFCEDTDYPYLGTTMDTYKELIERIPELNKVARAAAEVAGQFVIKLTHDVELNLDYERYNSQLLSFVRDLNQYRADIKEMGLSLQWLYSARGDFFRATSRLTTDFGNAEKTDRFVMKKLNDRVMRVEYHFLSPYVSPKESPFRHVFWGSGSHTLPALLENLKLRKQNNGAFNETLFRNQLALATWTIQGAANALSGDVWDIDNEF

B1: 2/99 VH5/VL7 (antibody, V domains shown)
VH: QSMEETGGGLIQPGGSLRLSCAASGFSLSSYAMSWVRQAPGKGLEWVGYIWSGGSTDYADSVKGRFTISRDNSKNTLYLQMNSLRAEDTAVYYCARRYGTSYPDYGDANGFDPWGPGTLVTVSS
VL: AIQLTQSPSSLSASVGDRVTITCRASQSISSYLAWYQQKPGKAPKLLIYRASTLASGVPSRFSGSGSGTDFTLTISSLQPEDFATYYCQQSYSSSNVDNTFGGGTKVEIK
The term koff denotes the first-order rate constant of dissociation. Regarding B1, the koff is 0.00697 s⁻¹.

B2: 2/99 VH19/VL8 (antibody, V domains shown)
VH: QSMQESGPGLVKPSQTLSLTCTVSGFSLSSYAMSWIRQHPGKGLEWIGYIWSGGSTDYAPSLKSRVTISVDTSKNQFSLKLSSVTAADTAVYYCARRYGTSYPDYGDANGFDPWGQGTLVTVSS
VL: B1 VL with I2Y, A34S
On to B2, for which the koff worked out at 0.00671 s⁻¹.

B3: 2/99 VH16/VL8 (antibody, V domains shown)
VH: B2 VH with S2Q, M3L, Q15E, I36V, H39P, A59N, F77V, Q116P
VL: B1 VL with I2Y, A34S
Consider B3, for which the dissociation rate constant (koff) amounted to 0.00197 s⁻¹.

B4: 2/99 VH19/VL7 (antibody, V domains shown)
VH: B2 VH
VL: B1 VL
In the case of B4, the koff turned out to be 0.001 s⁻¹.

B5: 2/99 VH6/VL8 (antibody, V domains shown)
VH: B1 VH with S2Q, M3L, E4V, V47I, P116Q
VL: B1 VL with I2Y, A34S
Regarding B5, the koff came to 0.00301 s⁻¹.

B6: 2/99 VH21/VL8 (antibody, V domains shown)
VH: B2 VH with P60S, S61W, L62A, F77V
VL: B1 VL with I2Y, A34S
B6: the koff is 0.00174 s⁻¹.

B7: 2/99 VH7/VL8 (antibody, V domains shown)
VH: B1 VH with S2Q, M3L, E4V, V47I, D60S, S61W, V62A, P116Q
VL: B1 VL with I2Y, A34S
Regarding B7, the dissociation rate constant (koff) came out at 0.00172 s⁻¹.

B8: 2/99 VH22/VL7 (antibody, V domains shown)
VH: B2 VH with I36V, P60S, S61W, L62A, F77V
VL: B1 VL
For the molecule B8, the off-rate constant (koff) stood at 0.00337 s⁻¹.

B9: 2/99 VH15/VL7 (antibody, V domains shown)
VH: B2 VH with S2Q, M3L, Q15E, I36V, H39P, A59N, F77V
VL: B1 VL
In the case of B9, the koff worked out at 0.00543 s⁻¹.

B10: 2/99 VH6/VL7 (antibody, V domains shown)
VH: B1 VH with S2Q, M3L, E4V, V47I, P116Q
VL: B1 VL
Turning to B10, the off-rate constant (koff) came to 0.00563 s⁻¹.

B11: 2/99 VH9/VL7 (antibody, V domains shown)
VH: B1 VH with S2Q, M3L, E4L, T6S, I11V, S27T, L28F, R96K, P116Q
VL: B1 VL
With B11, the koff was 0.00761 s⁻¹.

B12: 2/99 VH20/VL7 (antibody, V domains shown)
VH: B2 VH with F77V
VL: B1 VL
Consider B12, for which the koff was determined as 0.00714 s⁻¹.

B13: 2/99 VH22/VL8 (antibody, V domains shown)
VH: B2 VH with I36V, P60S, S61W, L62A, F77V
VL: B1 VL with I2Y, A34S
As for B13, the koff is 0.00165 s⁻¹.

B14: 2/99 VH5/VL8 (antibody, V domains shown)
VH: B1 VH
VL: B1 VL with I2Y, A34S
B14: the koff turned out to be 0.00378 s⁻¹.

B15: 2/99 VH11/VL8 (antibody, V domains shown)
VH: B1 VH with S2Q, M3L, E4L, T6S, I11V, P116Q
VL: B1 VL with I2Y, A34S
For B15, the off-rate (koff) stood at 0.00552 s⁻¹.

B16: 2/99 VH7/VL7 (antibody, V domains shown)
VH: B1 VH with S2Q, M3L, E4V, V47I, D60S, S61W, V62A, P116Q
VL: B1 VL
B16: the koff was found to be 0.00366 s⁻¹.

B17: 2/99 VH8/VL7 (antibody, V domains shown)
VH: QQLVETGGGLIQPGGSLRLSCAASGFSLSSYAMSWVRQAPGKGLEWIGYIWSGGSTDYASWAKGRFTISKTSTTLYLQMNSLRAEDTAVYYCARRYGTSYPDYGDANGFDPWGQGTLVTVSS
VL: B1 VL
In the case of B17, the dissociation rate constant (koff) was 0.00231 s⁻¹.

B18: 2/99 VH2/VL8 (antibody, V domains shown)
VH: EVQLVETGGGLIQPGGSLRLSCAASGFSLSSYAMSWVRQAPGKGLEWVGYIWSGGSTDYADSVKGRFTISRDNSKNTLYLQMNSLRAEDTAVYYCARRYGTSYPDYGDANGFDPWGQGTLVTVSS
VL: B1 VL with I2Y, A34S
In the case of B18, the koff amounted to 0.00394 s⁻¹.

B19: 2/99 VH13/VL7 (antibody, V domains shown)
VH: QVQLQESGPGLVKPSETLSLTCTVSGFSLSSYAMSWIRQPPGKGLEWIGYIWSGGSTDYNPSLKSRVTISVDTSKNQVSLKLSSVTAADTAVYYCARRYGTSYPDYGDANGFDPWGQGTLVTVSS
VL: B1 VL
Turning to B19, the off-rate constant (koff) worked out at 0.00668 s⁻¹.

B20: 2/99 VH23-DANG/VL7 (antibody, V domains shown)
VH: QSMQESGPGLVKPSQTLSLTCTVSGFSLSSYAMSWIRQHPGKGLEWIGYIWSGGSTDYASWAKSRVTISKTSTTVSLKLSSVTAADTAVYYCARRYGTSYPDYGDANGFDPWGQGTLVTVSS
VL: B1 VL
For B20, the off-rate (koff) stood at 0.00155 s⁻¹.

B21: 2/99 VH18/VL7 (antibody, V domains shown)
VH: B19 VH with E16Q, P40H, N60A, V78F
VL: B1 VL
Consider B21, for which the koff was found to be 0.00766 s⁻¹.

B22: 2/99 VH12/VL7 (antibody, V domains shown)
VH: B19 VH with V78F
VL: B1 VL
On to B22, for which the dissociation rate constant (koff) came out at 0.00771 s⁻¹.

B23: 2/99 VH21/VL7 (antibody, V domains shown)
VH: B2 VH with P60S, S61W, L62A, F77V
VL: B1 VL
B23: the koff was 0.00238 s⁻¹.

B24: 2/99 VH16/VL7 (antibody, V domains shown)
VH: B2 VH with S2Q, M3L, Q15E, I36V, H39P, A59N, F77V, Q116P
VL: B1 VL
Regarding B24, the koff stood at 0.00525 s⁻¹.

B25: 2/99 VH17/VL8 (antibody, V domains shown)
VH: B2 VH with S2Q, M3L, Q15E, I36V, H39P, A59N, V70K, F77V, Q116P
VL: B1 VL with I2Y, A34S
For B25, the koff came to 0.00111 s⁻¹.

B26: 2/99 VH15/VL8 (antibody, V domains shown)
VH: B2 VH with S2Q, M3L, Q15E, I36V, H39P, A59N, F77V
VL: B1 VL with I2Y, A34S
For the molecule B26, the koff came out at 0.00209 s⁻¹.

B27: 2/99 VH17/VL7 (antibody, V domains shown)
VH: B2 VH with S2Q, M3L, Q15E, I36V, H39P, A59N, V70K, F77V, Q116P
VL: B1 VL
As for B27, the koff was 0.00233 s⁻¹.

B28: 2/99 VH12/VL8 (antibody, V domains shown)
VH: B19 VH with V78F
VL: B1 VL with I2Y, A34S
With B28, the koff was 0.00531 s⁻¹.

B29: 2/99 VH13/VL8 (antibody, V domains shown)
VH: B19 VH
VL: B1 VL with I2Y, A34S
As to B29, the off-rate (koff) worked out at 0.00247 s⁻¹.

B30: 2/99 VH1/VL8 (antibody, V domains shown)
VH: B1 VH with Q1V, S2Q, M3L, E4V, P116Q
VL: B1 VL with I2Y, A34S
Regarding B30, the off-rate (koff) was 0.00485 s⁻¹.

B31: 2/99 VH11/VL7 (antibody, V domains shown)
VH: B1 VH with S2Q, M3L, E4L, T6S, I11V, P116Q
VL: B1 VL
As for B31, the koff came to 0.00781 s⁻¹.

B32: 2/99 VH18/VL8 (antibody, V domains shown)
VH: B19 VH with E16Q, P40H, N60A, V78F
VL: B1 VL with I2Y, A34S
B32: the koff came out at 0.00677 s⁻¹.

B33: 2/99 VH9/VL8 (antibody, V domains shown)
VH: B1 VH with S2Q, M3L, E4L, T6S, I11V, S27T, L28F, R96K, P116Q
VL: B1 VL with I2Y, A34S
B33: the koff amounted to 0.00523 s⁻¹.

B34: 2/99 VH8/VL8 (antibody, V domains shown)
VH: B17 VH
VL: B1 VL with I2Y, A34S
As to B34, the koff worked out at 0.00116 s⁻¹.

B35: 2/99 VH20/VL8 (antibody, V domains shown)
VH: B2 VH with F77V
VL: B1 VL with I2Y, A34S
Consider B35, for which the koff is 0.00658 s⁻¹.
